Measurements reported in doi:10.1101/851261 (2019).
Positions of bridges follow the written chain, without caps; N, C: chain ends. No end group written: not given here.

T1: AjKissR2 (Apostichopus japonicus)
T1 chain: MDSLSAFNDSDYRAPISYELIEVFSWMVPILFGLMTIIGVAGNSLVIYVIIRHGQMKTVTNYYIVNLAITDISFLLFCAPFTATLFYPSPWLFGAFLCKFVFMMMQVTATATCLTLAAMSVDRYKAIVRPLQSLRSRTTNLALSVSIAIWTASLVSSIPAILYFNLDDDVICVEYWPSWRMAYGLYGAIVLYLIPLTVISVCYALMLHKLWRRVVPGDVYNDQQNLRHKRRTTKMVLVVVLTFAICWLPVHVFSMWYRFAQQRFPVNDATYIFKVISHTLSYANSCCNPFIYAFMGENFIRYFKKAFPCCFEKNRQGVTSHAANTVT

T2: AjKissR1 (Apostichopus japonicus)
T2 chain: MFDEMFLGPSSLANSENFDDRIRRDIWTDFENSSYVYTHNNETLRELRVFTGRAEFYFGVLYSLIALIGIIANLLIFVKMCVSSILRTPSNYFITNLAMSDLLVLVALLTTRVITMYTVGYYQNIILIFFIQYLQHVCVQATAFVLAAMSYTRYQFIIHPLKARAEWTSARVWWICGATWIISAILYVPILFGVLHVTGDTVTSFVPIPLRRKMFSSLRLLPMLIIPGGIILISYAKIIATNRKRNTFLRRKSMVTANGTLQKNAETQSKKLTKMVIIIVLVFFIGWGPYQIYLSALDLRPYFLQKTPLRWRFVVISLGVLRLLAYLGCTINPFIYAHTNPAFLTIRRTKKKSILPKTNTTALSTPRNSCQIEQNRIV


Key:
[1] = target: T1, AjKissR2; assay: FACS; competition with 1.0 uM FITC-AjKiss1a
[2] = target: T2, AjKissR1; assay: FACS; competition with 1.0 uM FITC-AjKiss1a

| Binder | IC50 [1] | IC50 [2] |
| --- | --- | --- |
| SAVKNKNKSRARPPLLPF-NH2 [AjKiss1b] | 1250 nM | – |
| AGSLDCLEASCEDVERRGRQPNRNAHYRTLPF-NH2 (disulfide 6-11 (inferred)) [AjKiss1a] | – | 568 nM |
